Values quoted from earlier work, collected in paper PMC8298264, “Function of cofactor Akirin2 in the regulation of gene expression in model human neutrophil-like HL60 cells” (Bioscience Reports, 2021).

system: AKR2; design: key: A: Very high confidence in the interaction; B: High confidence in the interaction; D: Moderate confidence in the interaction; details: AKR2-interacting proteins (IPs), physical interactome; ref https://doi.org/10.3390/vaccines8010077; cited from earlier work
Excerpt: Supplement BSR-2021-1120_supp1.zip/BSR-2021-1120_suppST4.xlsx, sheet "BPs related to AKR2-IPs" | column: Predicted Biological Score (PBS)

| Molecule | Predicted Biological Score (PBS) |
| --- | --- |
| SPG21 (protein, UniProt Q9NZD8 1-308, looked up) Maspardin: MGEIKVSPDYNWFRGTVPLKKIIVDDDDSKIWSLYDAGPRSIRCPLIFLPPVSGTADVFFRQILALTGWGYRVIALQYPVYWDHLEFCDGFRKLLDHLQLDKVHLFGASLGGFLAQKFAEYTHKSPRVHSLILCNSFSDTSIFNQTWTANSFWLMPAFMLKKIVLGNFSSGPVDPMMADAIDFMVDRLESLGQSELASRLTLNCQNSYVEPHKIRDIPVTIMDVFDQSALSTEAKEEMYKLYPNARRAHLKTGGNFPYLCRSAEVNLYVQIHLLQFHGTKYAAIDPSMVSAEELEVQKGSLGISQEEQ | A |
| RNF123 (protein, UniProt Q5XPI4 2-1314, looked up) E3 ubiquitin-protein ligase …: ASKGAGMSFSRKSYRLTSDAEKSRVTGIVQEKLLNDYLNRIFSSSEHAPPAATSRKPLNFQNLPEHLDQLLQVDNEEEESQGQVEGRLGPSTVVLDHTGGFEGLLLVDDDLLGVIGHSNFGTIRSTTCVYKGKWLYEVLISSQGLMQIGWCTISCRFNQEEGVGDTHNSYAYDGNRVRKWNVTTTNYGKAWAAGDIVSCLIDLDDGTLSFCLNGVSLGTAFENLSRGLGMAYFPAISLSFKESVAFNFGSRPLRYPVAGYRPLQDPPSADLVRAQRLLGCFRAVLSVELDPVEGRLLDKESSKWRLRGQPTVLLTLAHIFHHFAPLLRKVYLVEAVLMSFLLGIVEKGTPTQAQSVVHQVLDLLWLFMEDYEVQDCLKQLMMSLLRLYRFSPIVPDLGLQIHYLRLTIAILRHEKSRKFLLSNVLFDVLRSVVFFYIKSPLRVEEAGLQELIPTTWWPHCSSREGKESTEMKEETAEERLRRRAYERGCQRLRKRIEVVEELQVQILKLLLDNKDDNGGEASRYIFLTKFRKFLQENASGRGNMPMLCPPEYMVCFLHRLISALRYYWDEYKASNPHASFSEEAYIPPQVFYNGKVDYFDLQRLGGLLSHLRKTLKDDLASKANIVIDPLELQSTAMDDLDEDEEPAPAMAQRPMQALAVGGPLPLPRPGWLSSPTLGRANRFLSTAAVSLMTPRRPLSTSEKVKVRTLSVEQRTREDIEGSHWNEGLLLGRPPEEPEQPLTENSLLEVLDGAVMMYNLSVHQQLGKMVGVSDDVNEYAMALRDTEDKLRRCPKRRKDILAELTKSQKVFSEKLDHLSRRLAWVHATVYSQEKMLDIYWLLRVCLRTIEHGDRTGSLFAFMPEFYLSVAINSYSALKNYFGPVHSMEELPGYEETLTRLAAILAKHFADARIVGTDIRDSLMQALASYVCYPHSLRAVERIPEEQRIAMVRNLLAPYEQRPWAQTNWILVRLWRGCGFGYRYTRLPHLLKTKLEDANLPSLQKPCPSTLLQQHMADLLQQGPDVAPSFLNSVLNQLNWAFSEFIGMIQEIQQAAERLERNFVDSRQLKVCATCFDLSVSLLRVLEMTITLVPEIFLDWTRPTSEMLLRRLAQLLNQVLNRVTAERNLFDRVVTLRLPGLESVDHYPILVAVTGILVQLLVRGPASEREQATSVLLADPCFQLRSICYLLGQPEPPAPGTALPAPDRKRFSLQSYADYISADELAQVEQMLAHLTSASAQAAAASLPTSEEDLCPICYAHPISAVFQPCGHKSCKACINQHLMNNKDCFFCKTTIVSVEDWEKGANTSTTSSAA | A |
| SIRT1 (protein, UniProt Q96EB6 2-747, looked up) NAD-dependent protein …: ADEAALALQPGGSPSAAGADREAASSPAGEPLRKRPRRDGPGLERSPGEPGGAAPEREVPAAARGCPGAAAAALWREAEAEAAAAGGEQEAQATAAAGEGDNGPGLQGPSREPPLADNLYDEDDDDEGEEEEEAAAAAIGYRDNLLFGDEIITNGFHSCESDEEDRASHASSSDWTPRPRIGPYTFVQQHLMIGTDPRTILKDLLPETIPPPELDDMTLWQIVINILSEPPKRKKRKDINTIEDAVKLLQECKKIIVLTGAGVSVSCGIPDFRSRDGIYARLAVDFPDLPDPQAMFDIEYFRKDPRPFFKFAKEIYPGQFQPSLCHKFIALSDKEGKLLRNYTQNIDTLEQVAGIQRIIQCHGSFATASCLICKYKVDCEAVRGDIFNQVVPRCPRCPADEPLAIMKPEIVFFGENLPEQFHRAMKYDKDEVDLLIVIGSSLKVRPVALIPSSIPHEVPQILINREPLPHLHFDVELLGDCDVIINELCHRLGGEYAKLCCNPVKLSEITEKPPRTQKELAYLSELPPTPLHVSEDSSSPERTSPPDSSVIVTLLDQAAKSNDDLDVSESKGCMEEKPQEVQTSRNVESIAEQMENPDLKNVGSSTGEKNERTSVAGTVRKCWPNRVAKEQISRRLDGNQYLFLPPNRYIFHGAEVYSDSEDDVLSSSSCGSNSDSGTCQSPSLEEPMEDESEIEEFYNGLEDEPDVPERAGGAGFGTDGDDQEAINEAISVKQEVTDMNYPSNKS | D |
| RNF181 (protein, UniProt Q9P0P0 1-153, looked up) E3 ubiquitin-protein ligase …: MASYFDEHDCEPSDPEQETRTNMLLELARSLFNRMDFEDLGLVVDWDHHLPPPAAKTVVENLPRTVIRGSQAELKCPVCLLEFEEEETAIEMPCHHLFHSSCILPWLSKTNSCPLCRYELPTDDDTYEEHRRDKARKQQQQHRLENLHGAMYT | A |
| SORBS3 (protein, UniProt O60504 1-671, looked up) Vinexin: MQGPPRSLRAGLSLDDFIPGHLQSHIGSSSRGTRVPVIRNGGSNTLNFQFHDPAPRTVCNGGYTPRRDASQHPDPAWYQTWPGPGSKPSASTKIPASQHTQNWSATWTKDSKRRDKRWVKYEGIGPVDESGMPIAPRSSVDRPRDWYRRMFQQIHRKMPDLQLDWTFEEPPRDPRHLGAQQRPAHRPGPATSSSGRSWDHSEELPRSTFNYRPGAFSTVLQPSNQVLRRREKVDNVWTEESWNQFLQELETGQRPKKPLVDDPGEKPSQPIEVLLERELAELSAELDKDLRAIETRLPSPKSSPAPRRAPEQRPPAGPASAWSSSYPHAPYLGSARSLSPHKMADGGSPFLGRRDFVYPSSTRDPSASNGGGSPARREEKKRKAARLKFDFQAQSPKELTLQKGDIVYIHKEVDKNWLEGEHHGRLGIFPANYVEVLPADEIPKPIKPPTYQVLEYGEAVAQYTFKGDLEVELSFRKGEHICLIRKVNENWYEGRITGTGRQGIFPASYVQVSREPRLRLCDDGPQLPTSPRLTAAARSARHPSSPSALRSPADPIDLGGQTSPRRTGFSFPTQEPRPQTQNLGTPGPALSHSRGPSHPLDLGTSSPNTSQIHWTPYRAMYQYRPQNEDELELREGDRVDVMQQCDDGWFVGVSRRTQKFGTFPGNYVAPV | A |
| TOMM34 (protein, UniProt Q15785 1-309, looked up) Mitochondrial import receptor …: MAPKFPDSVEELRAAGNESFRNGQYAEASALYGRALRVLQAQGSSDPEEESVLYSNRAACHLKDGNCRDCIKDCTSALALVPFSIKPLLRRASAYEALEKYPMAYVDYKTVLQIDDNVTSAVEGINRMTRALMDSLGPEWRLKLPSIPLVPVSAQKRWNSLPSENHKEMAKSKSKETTATKNRVPSAGDVEKARVLKEEGNELVKKGNHKKAIEKYSESLLCSNLESATYSNRALCYLVLKQYTEAVKDCTEALKLDGKNVKAFYRRAQAHKALKDYKSSFADISNLLQIEPRNGPAQKLRQEVKQNLH | A |
| TNIP2 (protein, UniProt Q8NFZ5 1-429, looked up) TNFAIP3-interacting protein 2: MSRDPGSGGWEEAPRAAAALCTLYHEAGQRLRRLQDQLAARDALIARLRARLAALEGDAAPSLVDALLEQVARFREQLRRQEGGAAEAQMRQEIERLTERLEEKEREMQQLLSQPQHEREKEVVLLRRSMAEGERARAASDVLCRSLANETHQLRRTLTATAHMCQHLAKCLDERQHAQRNVGERSPDQSEHTDGHTSVQSVIEKLQEENRLLKQKVTHVEDLNAKWQRYNASRDEYVRGLHAQLRGLQIPHEPELMRKEISRLNRQLEEKINDCAEVKQELAASRTARDAALERVQMLEQQILAYKDDFMSERADRERAQSRIQELEEKVASLLHQVSWRQDSREPDAGRIHAGSKTAKYLAADALELMVPGGWRPGTGSQQPEPPAEGGHPGAAQRGQGDLQCPHCLQCFSDEQGEELLRHVAECCQ | A |
